T1: UL34^(174-194) peptide, unlabelled (HSV-1, UniProt P10218 174-194, N-terminal acetyl; C-terminal amide)
T1 peptide: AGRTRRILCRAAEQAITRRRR

B1: UL31^(41-50) peptide (UL31 mini-MPR) (peptide)
peptide: Ac-RKSLPPHARK-NH2
B2: UL31^(22-42) peptide (middle of the UL31 MPR) (peptide)
peptide: Ac-RRSRSSAAGGTLGVVRRASRK-NH2

Molecular target: T1, UL34^(174-194) peptide, unlabelled
Assay: cross-linking

Binder	binding result
B1	binds
B2	binds
